# Article PMC3821024, “The enzyme carbonic anhydrase as an integral component of biogenic Ca-carbonate formation in sponge spicules^” (FEBS Open Bio, 2013)
# Substrate: CC(=O)Oc1ccc([N+](=O)[O-])cc1
# Assay: colorimetric esterase assay, Lineweaver-Burk plot
# Type: biochemical, Sycon raphanus
# Details: 15 mM Tris/SO4 pH 7.4, 22 °C, 0.25-3 mM substrate, apparent Km
protein,measurement,value
"recombinant carbonic anhydrase (CA) from S. raphanus (Sycon raphanus) (protein, carbonic anhydrase domain, lacking signal peptide and transmembrane region; expressed in E. coli, Ni-NTA purified) ASWSYNYGAANGPNNWGMLPGFSTCGNGTKQTPIDIVRASATRQTYPTLSFSGATNETDWTIQNNGHSVAALPTADIWLSGGPLGSKVYKVYNIHIHFGNSSFRASEHSFDGGQRTTGEFHVVTYDRTFSNIGEAVASNRGDALSVFGVLFQAQTGQTYDAGITSLINMAANLTYAGDDYVDGLDFSTMVSALDLQQYYSYMGSLTTPGCAEVVSWIVANRLHYVSPAAIDQLMSLKAGMSATPGIDLQGNTRPLQALNGRTVSRSFDLSGS",Km,6.2 ± 1.0 mM
